B1: C8orf33 (protein, UniProt Q9H7E9 2-229, looked up)
UPF0488 protein C8orf33: AALGHLAGEAAAAPGPGTPCASRGARLPGPVSSARNPSTVCLCPEQPTCSNADSRAHPLGDEGGTASKKQKNKKKTRNRASVANGGEKASEKLAPEEVPLSAEAQAQQLAQELAWCVEQLELGLKRQKPTPKQKEQAIGAIRTLRSKRTPLPRKRQLMHSLFGDYRAQMEAEWREALRALRAAAYSAQVQPVDGATRKKSQRVCRPRSIWRAKATLDMPDEEFRFNFF
B2: TFB1M (protein, UniProt Q8WVM0 28-346, looked up)
Dimethyladenosine transferase …: QAAKQLSQNFLLDLRLTDKIVRKAGNLTNAYVYEVGPGPGGITRSILNADVAELLVVEKDTRFIPGLQMLSDAAPGKLRIVHGDVLTFKVEKAFSESLKRPWEDDPPNVHIIGNLPFSVSTPLIIKWLENISCRDGPFVYGRTQMTLTFQKEVAERLAANTGSKQRSRLSVMAQYLCNVRHIFTIPGQAFVPKPEVDVGVVHFTPLIQPKIEQPFKLVEKVVQNVFQFRRKYCHRGLRMLFPEAQRLESTGRLLELADIDPTLRPRQLSISHFKSLCDVYRKMCDEDPQLFAYNFREELKRRKSKNEEKEEDDAENYRL
B3: GNL3 (protein, UniProt Q9BVP2 1-549, looked up)
Guanine nucleotide-binding …: MKRPKLKKASKRMTCHKRYKIQKKVREHHRKLRKEAKKRGHKKPRKDPGVPNSAPFKEALLREAELRKQRLEELKQQQKLDRQKELEKKRKLETNPDIKPSNVEPMEKEFGLCKTENKAKSGKQNSKKLYCQELKKVIEASDVVLEVLDARDPLGCRCPQVEEAIVQSGQKKLVLILNKSDLVPKENLESWLNYLKKELPTVVFRASTKPKDKGKITKRVKAKKNAAPFRSEVCFGKEGLWKLLGGFQETCSKAIRVGVIGFPNVGKSSIINSLKQEQMCNVGVSMGLTRSMQVVPLDKQITIIDSPSFIVSPLNSSSALALRSPASIEVVKPMEAASAILSQADARQVVLKYTVPGYRNSLEFFTVLAQRRGMHQKGGIPNVEGAAKLLWSEWTGASLAYYCHPPTSWTPPPYFNESIVVDMKSGFNLEELEKNNAQSIRAIKGPHLANSILFQSSGLTNGIIEEKDIHEELPKRKERKQEEREDDKDSDQETVDEEVDENSSGMFAAEETGEALSEETTAGEQSTRSFILDKIIEEDDAYDFSTDYV
B4: EIF2A (protein, UniProt Q9BY44 1-585, looked up)
Eukaryotic translation …: MAPSTPLLTVRGSEGLYMVNGPPHFTESTVFPRESGKNCKVCIFSKDGTLFAWGNGEKVNIISVTNKGLLHSFDLLKAVCLEFSPKNTVLATWQPYTTSKDGTAGIPNLQLYDVKTGTCLKSFIQKKMQNWCPSWSEDETLCARNVNNEVHFFENNNFNTIANKLHLQKINDFVLSPGPQPYKVAVYVPGSKGAPSFVRLYQYPNFAGPHAALANKSFFKADKVTMLWNKKATAVLVIASTDVDKTGASYYGEQTLHYIATNGESAVVQLPKNGPIYDVVWNSSSTEFCAVYGFMPAKATIFNLKCDPVFDFGTGPRNAAYYSPHGHILVLAGFGNLRGQMEVWDVKNYKLISKPVASDSTYFAWCPDGEHILTATCAPRLRVNNGYKIWHYTGSILHKYDVPSNAELWQVSWQPFLDGIFPAKTITYQAVPSEVPNEEPKVATAYRPPALRNKPITNSKLHEEEPPQNMKPQSGNDKPLSKTALKNQRKHEAKKAAKQEARSDKSPDLAPTPAPQSTPRNTVSQSISGDPEIDKKIKNLKKKLKAIEQLKEQAATGKQLEKNQLEKIQKETALLQELEDLELGI

Test system: HCoV-OC43 gRNA and sgRNA
Type: binding
Settings: for target (unweighted spectral count, OC43 Probe II capture): 36 hpi, type n_36_v, tested against no-probe control, FDR<10%

Row | Molecule | target (unweighted spectral count, OC43 Probe II capture) | target (unweighted spectral count, OC43 Probe II) (type n_48_v, 48 hpi, OC43 Probe II capture on infected cells) | background (unweighted spectral count, no-probe control) (type n_48_v, 48 hpi, no-probe control on infected cells)
1 | B1 | 4 | – | –
2 | B2 | 4 | – | –
3 | B3 | 4 | – | –
4 | B4 | 4 | 5 | 1
